From paper PMC7293033 (2020)

Biological target: His-FGF2, LMW FGF2 (residues 135-288, C211S/C229S) (human, UniProt P09038 135-288, C211S | C229S)
Assay: SPR

Chain of His-FGF2, LMW FGF2 (residues 135-288, C211S/C229S) (P09038 135-288 C211S/C229S): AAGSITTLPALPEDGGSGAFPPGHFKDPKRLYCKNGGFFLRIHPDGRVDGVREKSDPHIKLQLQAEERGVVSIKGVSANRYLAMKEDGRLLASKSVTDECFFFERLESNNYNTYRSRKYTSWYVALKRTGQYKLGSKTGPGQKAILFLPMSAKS

- koff: 0.00474 s⁻¹
B1: His-API5 (apoptosis inhibitor 5, residues 1-504, isoform 2), wild type (natural protein)
chain: MPTVEELYRNYGILADATEQVGQHKDAYQVILDGVKGGTKEKRLAAQFIPKFFKHFPELADSAINAQLDLCEDEDVSIRRQAIKELPQFATGENLPRVADILTQLLQTDDSAEFNLVNNALLSIFKMDAKGTLGGLFSQILQGEDIVRERAIKFLSTKLKTLPDEVLTKEVEELILTESKKVLEDVTGEEFVLFMKILSGLKSLQTVSGRQQLVELVAEQADLEQTFNPSDPDCVDRLLQCTRQAVPLFSKNVHSTRFVTYFCEQVLPNLGTLTTPVEGLDIQLEVLKLLAEMSSFCGDMEKLETNLRKLFDKLLEYMPLPPEEAENGENAGNEEPKLQFSYVECLLYSFHQLGRKLPDFLTAKLNAEKLKDFKIRLQYFARGLQVYIRQLRLALQGKTGEALKTEENKIKVVALKITNNINVLIKDLFHIPPSYKSTVTLSWKPVQKVEIGQKRASEDTTSGSPPKKSSAGPKRDARQIYNPPSGKYSSNLGNFNYERSLQGK
